Assay results from IntAct's records for PubMed 22307056.

target: fbw1b_human FBXW11 (UniProt Q9UKB1)
Sequence (Q9UKB1 whole entry): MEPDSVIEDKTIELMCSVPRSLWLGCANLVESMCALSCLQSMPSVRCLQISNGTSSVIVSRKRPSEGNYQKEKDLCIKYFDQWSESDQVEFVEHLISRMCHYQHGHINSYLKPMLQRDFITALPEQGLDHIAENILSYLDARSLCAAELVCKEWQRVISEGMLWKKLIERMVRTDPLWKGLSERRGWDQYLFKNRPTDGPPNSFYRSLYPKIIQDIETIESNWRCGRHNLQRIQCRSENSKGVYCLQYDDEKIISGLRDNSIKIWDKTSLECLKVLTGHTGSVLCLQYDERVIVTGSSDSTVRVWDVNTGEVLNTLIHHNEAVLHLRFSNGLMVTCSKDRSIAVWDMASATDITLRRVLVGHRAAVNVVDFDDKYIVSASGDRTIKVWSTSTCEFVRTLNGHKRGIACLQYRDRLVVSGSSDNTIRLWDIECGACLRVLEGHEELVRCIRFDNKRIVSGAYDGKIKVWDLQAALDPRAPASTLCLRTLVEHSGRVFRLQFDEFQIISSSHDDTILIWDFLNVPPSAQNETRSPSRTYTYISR

Sequence of Krueppel-like factor 4 (Mus musculus), Q60793 S140A (Q60793 whole entry S140A): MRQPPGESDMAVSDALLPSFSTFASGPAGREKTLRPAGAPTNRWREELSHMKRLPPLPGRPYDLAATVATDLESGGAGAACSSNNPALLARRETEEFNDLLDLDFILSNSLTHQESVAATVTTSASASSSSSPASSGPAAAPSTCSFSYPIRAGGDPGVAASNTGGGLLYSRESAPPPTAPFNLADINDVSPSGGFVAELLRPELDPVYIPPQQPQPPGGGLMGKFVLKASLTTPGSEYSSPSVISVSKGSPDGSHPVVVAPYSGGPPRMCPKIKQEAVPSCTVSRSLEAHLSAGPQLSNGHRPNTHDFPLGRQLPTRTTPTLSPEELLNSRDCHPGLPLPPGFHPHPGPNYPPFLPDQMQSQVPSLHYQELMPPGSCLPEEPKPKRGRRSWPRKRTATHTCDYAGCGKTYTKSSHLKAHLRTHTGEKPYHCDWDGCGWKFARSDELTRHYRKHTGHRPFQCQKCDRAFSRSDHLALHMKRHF
Sequence of Krueppel-like factor 4 (Mus musculus), Q60793 L101A;L103A (Q60793 whole entry L101A/L103A): as the sequence (Q60793 whole entry S140A) above, with L101A, L103A, A140S counted along it
Sequence of Krueppel-like factor 4 (Mus musculus), Q60793 L89A;R91A;R92A (Q60793 whole entry L89A/R91A/R92A): as the sequence (Q60793 whole entry S140A) above, with L89A, R91A, R92A, A140S counted along it
Sequence of Krueppel-like factor 4 (Mus musculus), Q60793 S132A (Q60793 whole entry S132A): as the sequence (Q60793 whole entry S140A) above, with S132A, A140S counted along it
Sequence of Krueppel-like factor 4 (Mus musculus), Q60793 S136A (Q60793 whole entry S136A): as the sequence (Q60793 whole entry S140A) above, with S136A, A140S counted along it
Sequence of Krueppel-like factor 4 (Mus musculus), Q60793 L89A;R91A;R92A;L101A;L103A (Q60793 whole entry L89A/R91A/R92A/L101A/L103A): as the sequence (Q60793 whole entry S140A) above, with L89A, R91A, R92A, L101A, L103A, A140S counted along it

| Substance | effect of a mutation on the interaction |
| --- | --- |
| Krueppel-like factor 4 (Mus musculus), Q60793 S132A | decreasing interaction strength |
| Krueppel-like factor 4 (Mus musculus), Q60793 S136A | decreasing interaction strength |
| Krueppel-like factor 4 (Mus musculus), Q60793 S140A | decreasing interaction strength |

target: mk03_mouse Mapk3 (UniProt Q63844)
Sequence (Q63844 whole entry): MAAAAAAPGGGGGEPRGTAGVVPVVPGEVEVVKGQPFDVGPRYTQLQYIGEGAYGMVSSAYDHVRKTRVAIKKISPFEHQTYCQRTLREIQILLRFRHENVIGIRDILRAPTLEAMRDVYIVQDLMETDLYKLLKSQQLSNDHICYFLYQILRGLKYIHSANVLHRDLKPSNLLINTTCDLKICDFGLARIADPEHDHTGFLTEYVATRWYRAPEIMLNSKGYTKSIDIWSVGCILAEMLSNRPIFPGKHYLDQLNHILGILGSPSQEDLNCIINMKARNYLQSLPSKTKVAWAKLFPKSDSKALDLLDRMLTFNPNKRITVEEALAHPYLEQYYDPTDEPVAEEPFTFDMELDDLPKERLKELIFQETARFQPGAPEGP

| Substance | effect of a mutation on the interaction |
| --- | --- |
| Krueppel-like factor 4 (Mus musculus), Q60793 L89A;R91A;R92A | disrupting interaction strength |
| Krueppel-like factor 4 (Mus musculus), Q60793 L89A;R91A;R92A;L101A;L103A | disrupting interaction strength |
| Krueppel-like factor 4 (Mus musculus), Q60793 L101A;L103A | decreasing interaction strength |
